Measurements: patent publication US20080213265A1 (INSTITUTE FOR RESEARCH IN BIOMEDICINE, published 2008)

What was measured:
[1] = biological target: T1, HA-tagged UL128Δ1-27 hCMV protein expressed in HEK293T cells (human cytomegalovirus (hCMV), UniProt P16837 28-171); test: FACS staining of fixed, permeabilized transfected HEK293T cells
T1 construct: mature; not shown: hemagglutinin (HA) tag
T1 sequence: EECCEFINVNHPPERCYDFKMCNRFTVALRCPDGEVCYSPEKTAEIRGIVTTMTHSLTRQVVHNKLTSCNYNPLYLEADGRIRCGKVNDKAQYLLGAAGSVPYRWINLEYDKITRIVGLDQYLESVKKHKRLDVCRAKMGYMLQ

[2] = biological target: T2, HA-tagged UL130Δ1-25 hCMV protein expressed alone in HEK293T cells (human cytomegalovirus (hCMV), UniProt P16772 26-214); test: as above
T2 construct: mature; not shown: hemagglutinin (HA) tag

[3] = biological target: UL130/UL131A of a clinical hCMV isolate (virus used in the neutralisation assay) (human cytomegalovirus (hCMV), UniProt P16772 26-214); test: cell-based or functional assay

B1: human monoclonal antibody 5A2 (antibody, V domains shown)
VH: QVQLVQSGAEVRKPGSSVKVSCKASGGTFSSYVIHWVRQAPGQGLEWMGGIIPIFNTANYAQKVQGRVTITADESTSTAYMELSSLRSEDTAIYYCARDFLSGPMEMPGGYYGLDVWGQGTTVTVSS
VL: not shown
notes: Human IgG from an immortalised B cell clone
For B1, the binding result [1] was “no binding”, the binding result [2] was “no binding” and the “50% neutralisation (µg/ml), Endothelial cells” value [3] was 0.002 µg/mL. For the same binder, the “50% neutralisation (µg/ml), Fibroblasts” value [3] was > 2 µg/mL.

B2: human monoclonal antibody 1F11 (antibody, V domains shown)
VH: QVQLVESGGGVVQPGRSVRLSCVASGFTFSSYAMHWVRQAPGKGLEWVSLISFDGDNKYYADSVRGRFTISRDSSQKTLFLQMNSLRVEDTAIYYCAREELVGLMPPYYNYGLDVWGQGTTVTVSS
VL: QSVLTQPPSVSAAPGQKVTISCSGSSSNIGNNFVSWYQQLPGTAPKLLIYDNDRRPSGIPDRFSGSKSDTSATLVITGLQTGDEADYYCETWDGSLNPAVVFGGGTRLTVL
notes: Human IgG from an EBV-immortalised B cell clone
In the case of B2, the binding result [1] is reported as “no binding”, the binding result [2] is reported as “no binding” and the “50% neutralisation (µg/ml), Endothelial cells” value [3] is reported as 0.001 µg/mL. For the same binder, the “50% neutralisation (µg/ml), Fibroblasts” value [3] was > 2 µg/mL.

B3: human monoclonal antibody 2F4 (antibody, V domains shown)
VH: QVQLVESGGGVVQPGRSLRLSCAASGFSFNTYGMHWVRQAPGKGLEWVAVIWDDGSKMYHADSVKGRFTISRDNSKNTLYLQMNSLRAEDTAVYYCARDEGAIMLHAMTDYGLDVWGQGTTVTV
VL: SYELTQPPSVSVSPGQTATITCSGDNLGDEFACWYQQKPGQSPVLVIYQDSKRPSGIPERFSGSSSGNTATLTIRGTQAMDEADYYCQAWDSSTAHYVFGTGTKVTVL
notes: as for B1
B3 was tested, and the binding result [1] was “no binding”, the binding result [2] was “no binding” and the “50% neutralisation (µg/ml), Endothelial cells” value [3] was 0.003 µg/mL. The “50% neutralisation (µg/ml), Fibroblasts” value [3] was > 2 µg/mL.
